Laboratory results reported in publication PMC5374410, “Identification of a Potent Allosteric Inhibitor of Human Protein Kinase CK2 by Bacterial Surface Display Library Screening” (Pharmaceuticals, 2017).

Key:
[1] = target: recombinant human protein kinase CK2 holoenzyme coupled to fluorescein isothiocyanate (FITC) (human) (UniProt P68400)
[2] = target: CK2α-pAzF coupled to DBCO-Sulfo-Cy5 (human) (UniProt P68400); assay: MST; B2 titrated (7.6 nM to 125 or 250 µM) to 100 nM fluorophore-labelled CK2α-DBCO-Sulfo-Cy5 or CK2β^1-193-Flu; 50 mM Tris/HCl pH 7.5, 25 mM NaCl, 20 mM MgCl2, Tween-20, DMSO; 37 °C, MST power 60%; Monolith NT.115; three independent measurements

Chain of recombinant human protein kinase CK2 holoenzyme coupled to fluorescein isothiocyanate (FITC) (human) (P68400 whole entry, chain 1 of 2): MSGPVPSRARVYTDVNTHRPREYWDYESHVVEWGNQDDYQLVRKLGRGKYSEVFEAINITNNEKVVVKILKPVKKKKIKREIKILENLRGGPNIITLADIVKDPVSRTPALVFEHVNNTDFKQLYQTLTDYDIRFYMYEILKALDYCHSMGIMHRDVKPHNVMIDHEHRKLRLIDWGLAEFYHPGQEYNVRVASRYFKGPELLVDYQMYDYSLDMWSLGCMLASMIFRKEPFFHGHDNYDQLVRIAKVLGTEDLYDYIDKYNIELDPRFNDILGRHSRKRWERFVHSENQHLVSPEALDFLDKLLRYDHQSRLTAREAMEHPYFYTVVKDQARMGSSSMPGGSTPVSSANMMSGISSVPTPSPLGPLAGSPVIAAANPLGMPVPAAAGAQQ
Chain of recombinant human protein kinase CK2 holoenzyme coupled to fluorescein isothiocyanate (FITC) (human) (P67870 whole entry, chain 2 of 2, further chain): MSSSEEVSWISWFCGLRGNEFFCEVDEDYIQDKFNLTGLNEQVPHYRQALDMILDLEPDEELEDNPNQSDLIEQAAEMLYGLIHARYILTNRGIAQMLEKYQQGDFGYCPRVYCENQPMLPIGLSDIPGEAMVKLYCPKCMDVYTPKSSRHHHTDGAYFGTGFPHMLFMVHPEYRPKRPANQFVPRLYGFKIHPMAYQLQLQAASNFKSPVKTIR

Binder | percent inhibition of (unlabelled) CK2 holoenzyme at 10 µM peptide, CE assay [1] [%] | Kd [2] [µM]
KHTKGPTAYCPL [peptide B1 (free synthetic peptide)] | < 5 | –
YRKPHWFIHTRI [peptide B3 (free synthetic peptide)] | < 5 | –
DCRGLIVMIKLH [peptide B2 (free synthetic peptide)] | – | 2.16
PCPAPRAPKLSI [peptide B4 (free synthetic peptide)] | 29 | –
